Literature values as cited in publication PMC8892085.

Target: TLR4 (Homo sapiens) (UniProt O00206)
Sequence (O00206 24-839): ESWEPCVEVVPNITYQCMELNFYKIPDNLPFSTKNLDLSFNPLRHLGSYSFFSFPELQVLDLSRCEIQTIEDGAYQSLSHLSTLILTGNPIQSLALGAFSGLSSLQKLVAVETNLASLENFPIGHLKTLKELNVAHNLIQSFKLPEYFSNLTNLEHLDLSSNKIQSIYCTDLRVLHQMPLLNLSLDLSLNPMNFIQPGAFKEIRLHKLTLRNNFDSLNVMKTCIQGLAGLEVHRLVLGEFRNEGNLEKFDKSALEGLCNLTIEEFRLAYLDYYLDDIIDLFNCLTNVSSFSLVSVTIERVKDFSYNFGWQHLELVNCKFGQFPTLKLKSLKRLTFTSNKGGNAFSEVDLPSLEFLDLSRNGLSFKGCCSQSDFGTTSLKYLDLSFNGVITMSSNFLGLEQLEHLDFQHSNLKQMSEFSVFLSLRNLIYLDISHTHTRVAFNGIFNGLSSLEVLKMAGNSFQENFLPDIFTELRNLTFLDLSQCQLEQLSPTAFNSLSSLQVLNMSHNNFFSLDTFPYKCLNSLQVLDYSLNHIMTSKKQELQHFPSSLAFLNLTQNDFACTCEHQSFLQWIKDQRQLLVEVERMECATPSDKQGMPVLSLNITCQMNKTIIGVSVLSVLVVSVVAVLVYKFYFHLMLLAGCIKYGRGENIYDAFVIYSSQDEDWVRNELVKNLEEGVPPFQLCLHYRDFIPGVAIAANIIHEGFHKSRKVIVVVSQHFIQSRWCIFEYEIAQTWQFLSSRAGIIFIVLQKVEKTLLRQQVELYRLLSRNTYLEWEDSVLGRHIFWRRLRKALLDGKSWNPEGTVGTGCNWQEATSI

HMGB1, sequence (P09429 whole entry): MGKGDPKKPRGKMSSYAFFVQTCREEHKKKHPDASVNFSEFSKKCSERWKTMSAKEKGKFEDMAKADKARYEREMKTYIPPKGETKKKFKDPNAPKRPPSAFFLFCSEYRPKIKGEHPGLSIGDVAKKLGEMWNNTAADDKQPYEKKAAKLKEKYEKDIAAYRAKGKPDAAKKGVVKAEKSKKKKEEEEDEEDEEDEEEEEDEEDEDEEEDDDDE

Kd: 600 nM
Substance: HMGB1 (from UniProt P09429)
